In US20230257472A1 (JIANGSU HENGRUI MEDICINE, published 2023):

T1: His-tagged CD70 protein extracellular domain (His-TNC-CD70) (human)
T1 construct: Expressed in 293 cells; also called human His-TNC-CD70 antigen; human CD70 antigen
T1 chain: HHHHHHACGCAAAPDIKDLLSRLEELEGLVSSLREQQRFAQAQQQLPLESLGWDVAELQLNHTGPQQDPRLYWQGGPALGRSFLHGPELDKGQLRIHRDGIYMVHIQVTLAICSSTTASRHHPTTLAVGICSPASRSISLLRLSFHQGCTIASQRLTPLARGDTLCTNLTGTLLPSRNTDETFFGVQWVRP


Target: T1, His-tagged CD70 protein extracellular …
Experiment: SPR Biacore T200, antibody captured by anti-human Fc, His-TNC-CD70 in flow, 1:1 model
Protocol: The affinity of the chimeric and humanized antibodies of the present disclosure for the human CD70 antigen was tested using a Biacore instrument. The procedures are as follows:
The human Fc capture molecules were covalently coupled to a CM5 biosensor chip (CAT #BR-1005-30, GE) according to the method described in the instructions of the human Fc capture kit (CAT #BR-1008-39, GE) for affinity capture of the antibodies to be tested. Then, a human His-TNC-CD70 antigen (set forth in SEQ ID NO: 1) flowed through the surface of the chip, and the reaction signal was detected in real time using a Biacore T200 instrument to obtain association and dissociation curves. After the dissociation was completed for each cycle, the biochip was washed and regenerated with a regeneration solution configured in the human antibody capture kit (GE). Data were fitted using a 1:1 model.

Kd [nM]	koff [s⁻¹]	kon [M⁻¹ s⁻¹]	Binder
0.0392	9.56e-05	2.44e+06	huF4026 (antibody, human IgG1, kappa, V domains shown, Humanized IgG1) VH: EVQLVQSGAEVKKPGSSVKVSCKASGDTFPRYNMHWVRQAPGQGLEWMGAIFPGNGETSYNQNFKGRVTITADKSTSTAYMELSSLRSEDTAVYYCARNSYYDYAWFTYWGQGTLVTVSS VL: DIVMTQSPDSLAVSLGERATINCRASKSVSSSGYSFMHWYQQKPGQPPKLLIYLASNLESGVPDRFSGSGSGTDFTLTISSLQAEDVAVYYCQHSREFPPTFGQGTKLEIKR
0.0503	9.62e-05	1.91e+06	huB1026 (antibody, human IgG1, kappa, V domains shown, Humanized IgG1) VH: EVQMVQSGAEVKKPGASVKVSCKASGYTFTTYNIHWVRQAPGQGLEWMGDIYPGNGDASYNQKFRDRVTMTRDTSTSTVYMELSSLRSEDTAVYYCATFSRFDGWFAYWGQGTLVTVSS VL: DIVMTQSPDSLAVSLGERATINCRASRSVSTSGYSYMHWYQQKPGQPPKLLIYLASNLESGVPDRFSGSGSGTDFTLTISSLQAEDVAVYYCQHSRELPYTFGGGTKVEIKR
0.0407	0.00016	3.93e+06	huB1037 (antibody, human IgG1, kappa, V domains shown, Humanized IgG1) VH: EVQLVQSGAEVKKPGASVKVSCKASGYTFTTYNIHWVRQAPGQGLEWMGDIYPGNGDASYNQKFRDRVTMTRDTSTSTVYMELSSLRSEDTAVYYCARFSRFDGWFAYWGQGTLVTVSS VL: DIVMSQSPDSLAVSLGERATINCRASRSVSTSGYSYMHWYQQKPGQPPKLLIYLASNLESGVPDRFSGSGSGTNFTLTISSLQAEDVAVYYCQHSRELPYTFGGGTKVEIKR
0.0412	0.000106	2.56e+06	huF4028 (antibody, human IgG1, kappa, V domains shown, Humanized IgG1) VH: EVQLVQSGAEVKKPGSSVKVSCKASGDTFPRYNMHWLKQAPGQGLEWMGAIFPGNGETSYNQNFKGRVTLTADKSTSTAYMELSSLRSEDTAVYYCARNSYYDYAWFTYWGQGTLVTVSS VL: DIVMTQSPDSLAVSLGERATINCRASKSVSSSGYSFMHWYQQKPGQPPKLLIYLASNLESGVPDRFSGSGSGTDFTLTISSLQAEDVAVYYCQHSREFPPTFGQGTKLEIKR
0.0561	0.000101	1.8e+06	huB1038 (antibody, human IgG1, kappa, V domains shown, Humanized IgG1) VH: EVQMVQSGAEVKKPGASVKVSCKASGYTFTTYNIHWVRQAPGQGLEWMGDIYPGNGDASYNQKFRDRVTMTRDTSTSTVYMELSSLRSEDTAVYYCATFSRFDGWFAYWGQGTLVTVSS VL: DIVMSQSPDSLAVSLGERATINCRASRSVSTSGYSYMHWYQQKPGQPPKLLIYLASNLESGVPDRFSGSGSGTNFTLTISSLQAEDVAVYYCQHSRELPYTFGGGTKVEIKR
0.0462	0.000154	3.33e+06	huB1025 (antibody, human IgG1, kappa, V domains shown, Humanized IgG1) VH: EVQLVQSGAEVKKPGASVKVSCKASGYTFTTYNIHWVRQAPGQGLEWMGDIYPGNGDASYNQKFRDRVTMTRDTSTSTVYMELSSLRSEDTAVYYCARFSRFDGWFAYWGQGTLVTVSS VL: DIVMTQSPDSLAVSLGERATINCRASRSVSTSGYSYMHWYQQKPGQPPKLLIYLASNLESGVPDRFSGSGSGTDFTLTISSLQAEDVAVYYCQHSRELPYTFGGGTKVEIKR
0.0334	7.54e-05	2.26e+06	CHB1 (chimeric antibody of B1) (antibody, human IgG1, kappa, V domains shown, Murine variable regions on human IgG1 / human light chain constant regions) VH: QVQMQQSGAELVKPGASVMMSCKASGYTFTTYNIHWIKQTPGQGLEWIGDIYPGNGDASYNQKFRDRATLTADRSSSTAYLQLSSLTSEDSAIYYCATFSRFDGWFAYWGQGTLVTVSA VL: DIVMSQSPASLAVSLGQRATISCRASRSVSTSGYSYMHWYQQKPGQPPKLLIYLASNLESGVPARFSGSGSGTNFTLNIHPVEEEDAATYYCQHSRELPYTFGGGTKLEIKR
0.0375	8.37e-05	2.23e+06	CHF4 (chimeric antibody of F4) (antibody, human IgG1, kappa, V domains shown, Murine variable regions on human IgG1 / human light chain constant regions) VH: QVQLKQSGAELVKPGASVKMSCKASGDTFPRYNMHWLKQTPGQGLEWIGAIFPGNGETSYNQNFKGKATLTADKSSSTAYMQLNSLTSEDSAVYYCARNSYYDYAWFTYWGQGTLVTVSA VL: DIVMTQSPASLDVSLGQRATISCRASKSVSSSGYSFMHWYQQKPGQPPKLLISLASNLESGVPARFSGSGSGTDFTLTIYPVEEEDAATYYCQHSREFPPTFGSGTKLEIKR
